Consider two proteins from patent US20020164696.

The target in data set [1] is T1, synthetic peptide corresponding to bovine kappa-CN.
T1 chain: HPHPHLSXMAI

Data set [2] addresses T2, synthetic peptide corresponding to camel kappa-CN.
T2 chain: RPRPRPSXIAI

B1: recombinant Camelus dromedarius chymosin (protein)
chain: GKVAREPLTSYLDSQYFGKIYIGTPPQEFTVVFDTGSSDLWVPSIYCKSNVCKNHHRFDPRKSSTFRNLGKPLSIHYGTGSMEGFLGYDTVTVSNIVDPNQTVGLSTEQPGEVFTYSEFDGILGLAYPSLASEYSVPVFDNMMDRHLVARDLFSVYMDRNGQGSMLTLGAIDPSYYTGSLHWVPVTLQQYWQFTVDSVTINGVAVACVGGCQAILDTGTSVLFGPSSDILKIQMAIGATENRYGEFDVNCGNLRSMPTVVFEINGRDYPLSPSAYTSKDQGFCTSGFQGDNNSELWILGDVFIREYYSVFDRANNRVGLAKAI
With B1, in data set [1], the “KM for Bt κ-CN” value is listed as 0.077 ± 0.019/-0.015 mM and the “kcat for Bt κ-CN” value is 11.7 ± 1.5/-1.2 s^-1. Further, in data set [2], the “KM for Cd κ-CN” value is 0.056 ± 0.035/-0.021 mM and the “kcat for Cd κ-CN” value is recorded as 5.1 ± 1.7/-1.0 s^-1.

B2: recombinantly produced bovine chymosin, ChyMax (protein)
chain: GEVASVPLTNYLDSQYFGKIYLGTPPQEFTVLFDTGSSDFWVPSIYCKSNACKNHQRFDPRKSSTFQNLGKPLSIHYGTGSMQGILGYDTVTVSNIVDIQQTVGLSTQEPGDVFTYAEFDGILGMAYPSLASEYSIPVFDNMMNRHLVAQDLFSVYMDRNGQESMLTLGAIDPSYYTGSLHWVPVTVQQYWQFTVDSVTISGVVVACEGGCQAILDTGTSKLVGPSSDILNIQQAIGATQNQYGEFDIDCDNLSYMPTVVFEINGKMYPLTPSAYTSQDQGFCTSGFQSENHSQKWILGDVFIREYYSVFDRANNLVGLAKAI
As for B2, in data set [1], the “KM for Bt κ-CN” value is 0.165 ± 0.015/-0.014 mM and the kcat for Bt κ-CN turned out to be 44.3 s⁻¹. Besides, in data set [2], the “KM for Cd κ-CN” value is recorded as 0.134 ± 0.022/-0.021 mM and the kcat for Cd κ-CN amounted to 4.3 s⁻¹.
